{"source": "IntAct's records for PubMed 18075593", "molecular_target": "cry1_mouse Cry1 (UniProt P97784)", "sequence (P97784 whole entry)": "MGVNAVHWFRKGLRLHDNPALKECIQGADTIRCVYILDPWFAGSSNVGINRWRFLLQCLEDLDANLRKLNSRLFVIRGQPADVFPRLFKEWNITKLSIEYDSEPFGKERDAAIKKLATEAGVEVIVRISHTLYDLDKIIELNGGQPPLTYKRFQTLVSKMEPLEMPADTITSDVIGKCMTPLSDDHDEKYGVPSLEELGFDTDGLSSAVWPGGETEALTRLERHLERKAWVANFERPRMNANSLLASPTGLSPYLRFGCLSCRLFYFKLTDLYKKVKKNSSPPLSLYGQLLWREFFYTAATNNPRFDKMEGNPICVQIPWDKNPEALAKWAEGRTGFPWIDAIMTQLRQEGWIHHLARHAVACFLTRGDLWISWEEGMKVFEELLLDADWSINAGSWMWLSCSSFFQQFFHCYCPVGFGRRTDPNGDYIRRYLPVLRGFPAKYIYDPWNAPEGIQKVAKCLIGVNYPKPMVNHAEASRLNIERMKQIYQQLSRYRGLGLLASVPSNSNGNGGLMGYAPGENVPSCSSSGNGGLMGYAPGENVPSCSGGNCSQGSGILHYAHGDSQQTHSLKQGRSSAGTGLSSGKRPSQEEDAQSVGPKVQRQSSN"}
{"substance": "Basic helix-loop-helix ARNT-like protein 1 (Mus musculus), Q9WTL8-2 K537R", "values": [{"measurement": "effect of a mutation on the interaction", "value": "decreasing interaction strength"}]}
